Measurements taken from article PMC9973356, “Cryo-EM Structures of AcrD Illuminate a Mechanism for Capturing Aminoglycosides from Its Central Cavity” (mBio, 2023).
Where “and” joins values, the source holds several entries; their conditions need not be identical. Equal values may be shown once.

Target: the molecule itself
Test: cryo-EM structure; single-particle cryo-EM of 10 µM AcrD in MSP1E3D1 nanodiscs (E. coli total extract lipid; 20 mM Tris-HCl pH 7.5, 100 mM NaCl), no gentamicin; particle ratio of trimer to dimer to monomer approximately 3:5:2

B1: Escherichia coli acriflavine resistance protein D (AcrD) (natural protein)
chain: MANFFIDRPIFAWVLAILLCLTGTLAIFSLPVEQYPDLAPPNVRVTANYPGASAQTLENTVTQVIEQNMTGLDNLMYMSSQSSGTGQASVTLSFKAGTDPDEAVQQVQNQLQSAMRKLPQAVQNQGVTVRKTGDTNILTIAFVSTDGSMDKQDIADYVASNIQDPLSRVNGVGDIDAYGSQYSMRIWLDPAKLNSFQMTAKDVTDAIESQNAQIAVGQLGGTPSVDKQALNATINAQSLLQTPEQFRDITLRVNQDGSEVRLGDVATVEMGAEKYDYLSRFNGKPASGLGVKLASGANEMATAELVLNRLDELAQYFPHGLEYKVAYETTSFVKASIEDVVKTLLEAIALVFLVMYLFLQNFRATLIPTIAVPVVLMGTFSVLYAFGYSVNTLTMFAMVLAIGLLVDDAIVVVENVERIMSEEGLTPREATRKSMGQIQGALVGIAMVLSAVFVPMAFFGGTTGAIYRQFSITIVAAMVLSVLVAMILTPALCATLLKPLKKGEHHGQKGFFAWFNQMFNRNAERYEKGVAKILHRSLRWIVIYVLLLGGMVFLFLRLPTSFLPLEDRGMFTTSVQLPSGSTQQQTLKVVEQIEKYYFTHEKDNIMSVFATVGSGPGGNGQNVARMFIRLKDWSERDSKTGTSFAIIERATKAFNQIKEARVIASSPPAISGLGSSAGFDMELQDHAGAGHDALMAARNQLLALAAENPELTRVRHNGLDDSPQLQIDIDQRKAQALGVAIDDINDTLQTAWGSSYVNDFMDRGRVKKVYVQAAAPYRMLPDDINLWYVRNKDGGMVPFSAFATSRWETGSPRLERYNGYSAVEIVGEAAPGVSTGTAMDIMESLVKQLPNGFGLEWTAMSYQERLSGAQAPALYAISLLVVFLCLAALYESWSVPFSVMLVVPLGVIGALLATWMRGLENDVYFQVGLLTVIGLSAKNAILIVEFANEMNQKGHDLFEATLHACRQRLRPILMTSLAFIFGVLPMATSTGAGSGGQHAVGTGVMGGMISATILAIYFVPLFFVLVRRRFPLKPRPE
notes: AcrD, E. coli, full length; Seen as trimers, dimers and monomers in the same nanodisc sample; The nanodisc scaffold protein MSP1E3D1 (Sigma-Aldrich) is only a tool; also called AcrD aminoglycoside efflux pump; apo-AcrD
  stoichiometry N: 3 and 2
